B1: HEG1 cytoplasmic tail model protein (residues 1,274-1,381) (domain or fragment, human, UniProt Q9ULI3 1274-1381, looked up)
chain: RKNKNDISKLIFKSGDFQMSPYAEYPKNPRSQEWGREAIEMHENGSTKNLLQMTDVYYSPTSVRNPELERNGLYPAYTGLPGSRHSCIFPGQYNPSFISDESRRRDYF

Columns and labels:
[1] = target: KRIT1 FERM domain, KRIT1(417-736) (human, UniProt O00522 417-736); experiment: ITC
[2] = target: KRIT1(L717,721A) FERM protein (human, UniProt O00522 420-734, L717A | L721A); experiment: ITC
[3] = target: GST-KRIT1 FERM (human, UniProt O00522 420-734); experiment: pull-down
GST-KRIT1 FERM, sequence (O00522 420-734): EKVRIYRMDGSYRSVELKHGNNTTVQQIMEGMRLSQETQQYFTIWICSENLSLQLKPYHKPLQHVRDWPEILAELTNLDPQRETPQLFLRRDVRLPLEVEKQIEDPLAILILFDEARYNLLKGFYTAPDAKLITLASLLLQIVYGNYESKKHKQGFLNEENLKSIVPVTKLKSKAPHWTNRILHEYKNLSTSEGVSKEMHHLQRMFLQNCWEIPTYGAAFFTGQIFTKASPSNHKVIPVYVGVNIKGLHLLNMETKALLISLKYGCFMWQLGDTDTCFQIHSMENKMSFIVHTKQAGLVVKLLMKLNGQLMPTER

KRIT1 FERM domain, KRIT1(417-736), sequence (O00522 417-736): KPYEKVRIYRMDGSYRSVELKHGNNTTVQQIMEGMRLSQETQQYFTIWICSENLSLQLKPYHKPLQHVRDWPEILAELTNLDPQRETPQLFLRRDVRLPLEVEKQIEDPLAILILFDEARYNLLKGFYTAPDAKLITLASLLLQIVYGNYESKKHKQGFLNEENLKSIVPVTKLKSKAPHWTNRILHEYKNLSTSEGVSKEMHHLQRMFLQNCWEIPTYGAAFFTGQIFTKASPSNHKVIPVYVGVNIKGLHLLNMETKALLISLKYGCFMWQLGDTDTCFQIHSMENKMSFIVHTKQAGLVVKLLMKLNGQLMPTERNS
KRIT1(L717,721A) FERM protein, sequence (O00522 420-734 L717A/L721A): as the sequence (O00522 420-734) above, with L298A, L302A counted along it

| Binder | stoichiometry N [1] | fold reduction in affinity against wild type [2] | binding result [3] |
| --- | --- | --- | --- |
| SRHSCIFPGQYNPSFISDESRRRDYF (peptide, UniProt Q9ULI3 1356-1381, looked up) [recombinant human HEG1 C26 peptide (residues 1,356-1,381)] | 1.01 | > 100 fold | – |
| B1 | – | – | binds |
